According to patent publication US20220289857A1 (Kyowa Kirin, published 2022):
Positions count from the first letter of the chain named. Names and notes keep the numbering of the source. Values joined by “and” are separate entries in the source; they are usually repeats but may differ in a detail not shown here. Equal entries are not always repeated.

Columns and labels:
[1] = target: T1, mouse Fn14 (full length) on transfected 293F cells (mouse, UniProt Q9CR75 28-129); assay: flow cytometry, hybridoma supernatant on 293F cells transfected with mouse Fn14, detected with anti-mouse IgG PE
T1 sequence: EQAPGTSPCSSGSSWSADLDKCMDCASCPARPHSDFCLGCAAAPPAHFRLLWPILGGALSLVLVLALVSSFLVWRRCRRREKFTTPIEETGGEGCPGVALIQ
Description: FIG. 1 depicts binding of anti-Fn14 hybridoma supernatants to human and mouse Fn14 transfected cells. […] Hybridoma supernatant binding was detected using anti-mouse IgG PE.
Specifically, the binding activity of hybridoma culture supernatants or purified antibodies to Fn14-expressing cells was evaluated by flow cytometry (FCM). The cell lines evaluated by FCM were Fn14-transfected human embryonic kidney 293F cells (ThermoFisher, cat# R79007) and two cell lines endogenously expressing Fn14, human kidney-derived HK2 cells (ATCC, cat# CRL-2190) and rat kidney-derived NRK-52E cells (Japanese Collection of Research Bioresources Cell Bank (JCRB), cat# IF050480). For FCM analysis, Fn14-expressing cells were harvested using 0.25% trypsin-EDTA (Nacalai Tesque), washed with PBS, and resuspended in SM (Staining Medium: PBS containing 2% FBS, 1 mM EDTA, 0.05% sodium azide). Cells were then seeded in a 96-well plate at 1 ×10⁵ cells per well. Hybridoma supernatant or purified antibody (1 μg/mL final concentration) was added and the cells were incubated at 4° C. for 60 minutes. Cells were then washed with SM, resuspended in goat F(ab′)2 anti-mouse IgG-PE (Southern Biotech Inc.), diluted 1:500 in SM and incubated at 4° C. for 60 minutes. […] Fluorescence intensity was measured by FCM (BD Biosciences, FACS CantoII) and the data were analyzed using FlowJo software (Tomy Digital Biology Co., Ltd.).

[2] = target: T2, rat Fn14, endogenous on NRK-52E cells (rat, UniProt Q9CR75 28-129 (mouse entry)); assay: flow cytometry on NRK-52E cells (endogenous rat Fn14), purified antibody 1 µg/mL, detected with anti-mouse IgG PE
T2 construct: Endogenous protein of rat kidney cells; also called NRK52E-A15/Luc cells
Description: (§1) Primary antibodies were used at a concentration of 1 μg/mL and binding was detected using anti-mouse IgG PE.
(§2) Specifically, the binding activity of hybridoma culture supernatants or purified antibodies to Fn14-expressing cells was evaluated by flow cytometry (FCM). The cell lines evaluated by FCM were Fn14-transfected human embryonic kidney 293F cells (ThermoFisher, cat# R79007) and two cell lines endogenously expressing Fn14, human kidney-derived HK2 cells (ATCC, cat# CRL-2190) and rat kidney-derived NRK-52E cells (Japanese Collection of Research Bioresources Cell Bank (JCRB), cat# IF050480). For FCM analysis, Fn14-expressing cells were harvested using 0.25% trypsin-EDTA (Nacalai Tesque), washed with PBS, and resuspended in SM (Staining Medium: PBS containing 2% FBS, 1 mM EDTA, 0.05% sodium azide). Cells were then seeded in a 96-well plate at 1 ×10⁵ cells per well. Hybridoma supernatant or purified antibody (1 μg/mL final concentration) was added and the cells were incubated at 4° C. for 60 minutes. Cells were then washed with SM, resuspended in goat F(ab′)2 anti-mouse IgG-PE (Southern Biotech Inc.), diluted 1:500 in SM and incubated at 4° C. for 60 minutes. Cells were washed with SM and finally resuspended in 50 μL of SM. Fluorescence intensity was measured by FCM (BD Biosciences, FACS CantoII) and the data were analyzed using FlowJo software (Tomy Digital Biology Co., Ltd.).

[3] = target: T3, cynomolgus macaque Fn14-GST (cynomolgus macaque (Macaca fascicularis)); assay: SPR Biacore T200; cyno Fn14-GST captured by anti-GST, Fab analyte; 1:1 fit
T3 construct: Used from culture supernatant, captured by anti-GST; also called cyno Fn14-GST; CynoFn14
Description: (§3) In order to kinetically analyze the binding activity of anti-Fn14 mouse antibodies 41c, R35B9, and CRCBT-06-002 to recombinant human and cynomolgus macaque Fn14 proteins, the binding activity was measured by surface plasmon resonance method (SPR). Antibodies were generated as described herein. All of the following procedures were carried out using a Biacore T200 (GE Healthcare Bio-Sciences). To determine antibody affinity to human Fn14, recombinant human His-SUMO-Fn14 was immobilized on a CMS sensor chip (GE Healthcare Bio-Sciences) by amine coupling chemistry. In particular, the kinetic assay was carried out by immobilizing on the chip approximately 20-30 RU of recombinant protein, in order to achieve a low protein immobilization level. To determine antibody affinity to cynomolgus macaque Fn14, polyclonal anti-GST antibodies were immobilized on a CMS sensor chip (GE Healthcare Bio-Sciences) by amine coupling chemistry. In particular, after immobilizing approximately 1500 RU of anti-GST capture antibody onto the chip, cynomolgus macaque GST-Fn14 in culture supernatant was allowed to run for 5 minutes at a flow rate of 30 μL/min in order to achieve a low capture level of approximately 20 RU. Thereafter, antibody Fab fragments, serially diluted from a high concentration, were allowed to run at a flow rate of 30 μL/min onto the chip for 300 seconds. The dissociation time was 1800 seconds and the binding curves were measured at 25° C. Regeneration was performed with 10 mM glycine pH 1.5 for 30 seconds. The raw data were double referenced by subtraction of the signals from a reference flow cell without immobilized ligand and a buffer blank.
(§4) A sensorgram corresponding to each concentration was obtained (see FIG. 5). Analysis was carried out using a 1:1 Langmuir fit model using the analysis software attached to the apparatus, Biacore T200 Evaluation software (Biacore), thereby calculating an association rate constant ka [M-1s-1] and a dissociation rate constant kd [s-1] for the recombinant Fn14 proteins. […] Cross-reactivity of anti-Fn14 mouse antibodies to recombinant mouse GST-Fn14 protein was measured as described above.

mouse Fn14-GST = target: T4, mouse Fn14-GST (mouse); assay: SPR (Biacore T200); mouse Fn14-GST captured by immobilized anti-GST antibody, analyte at 10 nM
T4 construct: also called mouse GST-Fn14
Description: (§5) In order to kinetically analyze the binding activity of anti-Fn14 mouse antibodies 41c, R35B9, and CRCBT-06-002 to recombinant human and cynomolgus macaque Fn14 proteins, the binding activity was measured by surface plasmon resonance method (SPR). Antibodies were generated as described herein. All of the following procedures were carried out using a Biacore T200 (GE Healthcare Bio-Sciences). To determine antibody affinity to human Fn14, recombinant human His-SUMO-Fn14 was immobilized on a CMS sensor chip (GE Healthcare Bio-Sciences) by amine coupling chemistry. In particular, the kinetic assay was carried out by immobilizing on the chip approximately 20-30 RU of recombinant protein, in order to achieve a low protein immobilization level. To determine antibody affinity to cynomolgus macaque Fn14, polyclonal anti-GST antibodies were immobilized on a CMS sensor chip (GE Healthcare Bio-Sciences) by amine coupling chemistry. […] The dissociation time was 1800 seconds and the binding curves were measured at 25° C. […]
(§6) A sensorgram corresponding to each concentration was obtained (see FIG. 5). […] Cross-reactivity of anti-Fn14 mouse antibodies to recombinant mouse GST-Fn14 protein was measured as described above.

[4] = target: T3, cynomolgus macaque Fn14-GST; assay: SPR Biacore T200; cyno Fn14-GST captured by anti-GST, Fab analyte; average of two runs
Description: as §5, §6

[5] = target: T5, His-SUMO-huFn14 (soluble human Fn14 aa 28-75 with N-terminal 6xHis-SUMO tag) (human); assay: SPR Biacore T200; His-SUMO-huFn14 amine-coupled, Fab analyte; 1:1 fit
T5 construct: also called His-SUMO-Fn14; His-SUMO-hFn14
Description: as §3, §4

[6] = target: T5, His-SUMO-huFn14 (soluble human Fn14 aa …); assay: SPR Biacore T200; His-SUMO-huFn14 amine-coupled, Fab analyte; average of two runs
Description: as §5, §6

[7] = target: T6, human Fn14 (full length) on cells (human, UniProt Q9NP84 28-129); assay: cell-based or functional assay
T6 sequence: T1 sequence with S7A, S11R, P29R, H47P, V62T, L63F, A66G, V68L, S70G, G97A

[8] = target: T7, human Fn14 Subdomain 2 peptide (AA51-70), biotinylated (human, added C-terminal Lys carries Ahx-biotin; C-terminal amide); assay: biolayer interferometry (ForteBio Octet); biotinylated peptide on streptavidin biosensor, response at 120 s of association
T7 peptide: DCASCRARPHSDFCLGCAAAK
Description: (§7) A ForteBio Octet Qke instrument (ForteBio) was used to measure the ability of purified antibodies to bind Fn14 peptides. The assays were performed at 30° C. in 96-well half area plates (Grenier, cat# 675076), with agitation set to 1000 rpm, in kinetic buffer (provided in the assay kit) to minimize nonspecific interactions. Biosensor tips were equilibrated in kinetic buffer for 600 s prior to use. Soluble biotinylated peptides (20 μg/ml, Subdomain 1 (AA30-50): […]-[K-Ahx-biotin]-amide (SEQ ID NO: 182) and Subdomain 2 (AA51-70): […]-[K-Ahx-biotin]-amide (SEQ ID NO: 183) synthesized by 21′ Century Biochemicals) in kinetic buffer were immobilized on streptavidin-coated biosensors (ForteBio, cat# 18-5020) for 300 seconds. […] Purified antibodies (20 μg/m1) were allowed to bind the immobilized peptides. Association was measured for 300 seconds, using the high sensitivity kinetics setting. To characterize the binding properties of the antibody candidates, the response (nm) at t =120 seconds from the start of the association step was recorded. All values were compared to a control sample (isotype antibody).

[9] = target: T8, human Fn14 Subdomain 1 peptide (AA30-50), biotinylated (human, added C-terminal Lys carries Ahx-biotin; C-terminal amide); assay: biolayer interferometry (ForteBio Octet); biotinylated peptide on streptavidin biosensor, antibody in solution, response at 120 s of association
T8 peptide: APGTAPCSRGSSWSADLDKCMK
Description: as §7

[10] = target: T6, human Fn14 (full length) on cells; assay: flow cytometry on HK2 cells (endogenous human Fn14), purified antibody 1 µg/mL, detected with anti-mouse IgG PE
Description: as §1, §2

T5 sequence (chain, as listed by the source limits assumed): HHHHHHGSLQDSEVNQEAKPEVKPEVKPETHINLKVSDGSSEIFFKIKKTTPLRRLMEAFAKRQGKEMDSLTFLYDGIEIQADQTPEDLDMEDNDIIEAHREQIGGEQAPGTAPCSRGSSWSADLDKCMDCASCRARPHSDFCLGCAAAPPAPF
T3 sequence (chain, as listed by the source): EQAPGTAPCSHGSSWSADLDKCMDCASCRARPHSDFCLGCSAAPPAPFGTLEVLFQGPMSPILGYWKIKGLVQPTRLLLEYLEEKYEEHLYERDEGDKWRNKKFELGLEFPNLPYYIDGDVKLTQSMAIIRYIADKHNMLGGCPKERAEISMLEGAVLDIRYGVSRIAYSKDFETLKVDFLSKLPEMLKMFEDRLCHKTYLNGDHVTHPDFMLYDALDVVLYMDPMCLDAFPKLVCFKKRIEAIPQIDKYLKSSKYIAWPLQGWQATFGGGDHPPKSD

B1: KO41c mouse monoclonal antibody (hybridoma-derived) (antibody, V domains shown)
VH: EVQLQQSGPELVKPGASVKMSCKASGYTFTDYNMHWVKQSHGKSLEWIGYINPNNGGTNYNQKFKGKATLTVNKSSRSAYMEFRSLTSEDSAVYYCASSGWFTYWGQGTLVTVSA
VL: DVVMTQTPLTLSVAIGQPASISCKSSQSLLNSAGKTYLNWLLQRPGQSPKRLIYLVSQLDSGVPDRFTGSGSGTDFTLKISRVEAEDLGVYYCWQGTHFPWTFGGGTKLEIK
notes: Hybridoma supernatant or purified antibody from an Fn14 knockout mouse; native mouse IgG, kappa
B1: binds [1]; binds [2].

B2: 41c Fab (enzymatic digest of the mouse IgG1 antibody) (Fab, V domains shown, not shown: a dimerising Fc or GST)
VH: B1 VH
VL: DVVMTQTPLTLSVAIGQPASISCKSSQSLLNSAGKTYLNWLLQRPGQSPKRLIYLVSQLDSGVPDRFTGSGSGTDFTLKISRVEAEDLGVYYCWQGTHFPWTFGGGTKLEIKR
notes: Made with the mouse IgG1 Fab and F(ab')2 preparation kit; also called 41C Fab LM101416
B2 was tested, and the Kd [3] was 3.48 nM and 3.28 nM, the koff [3] was 0.00153 s⁻¹ and 0.00223 s⁻¹ and the kon [3] was 441000 M⁻¹ s⁻¹ and 678000 M⁻¹ s⁻¹. The binding result (mouse Fn14-GST) was “binds”, the Kd [4] was 3.38 nM and the Kd [5] was 2.15 nM and 1.81 nM. The koff [5] was 0.00242 s⁻¹ and 0.00266 s⁻¹, the kon [5] was 1.13e+06 M⁻¹ s⁻¹ and 1.47e+06 M⁻¹ s⁻¹ and the Kd [6] was 1.98 nM.

B3: R35B9 mouse IgG1(D265A), kappa antibody (A402/A403) (antibody)
heavy: EVQLQQSGPELVKPGASVKMSCKASGYIFQDYNMHWVKQSHGKSLEWIGSINPRNGWTNYNQKFKGKATLTVNKSSRSAYMEFRSLTSEDSAVYYCASSGWFTYWGQGTLVTVSAAKTTPPSVYPLAPGSAAQTNSMVTLGCLVKGYFPEPVTVTWNSGSLSSGVHTFPAVLESDLYTLSSSVTVPSSPRPSETVTCNVAHPASSTKVDKKIVPRDCGCKPCICTVPEVSSVFIFPPKPKDVLTITLTPKVTCVVVAISKDDPEVQFSWFVDDVEVHTAQTQPREEQFNSTFRSVSELPIMHQDWLNGKEFKCRVNSAAFPAPIEKTISKTKGRPKAPQVYTIPPPKEQMAKDKVSLTCMITDFFPEDITVEWQWNGQPAENYKNTQPIMNTNGSYFVYSKLNVQKSNWEAGNTFTCSVLHEGLHNHHTEKSLSHSPGK
light: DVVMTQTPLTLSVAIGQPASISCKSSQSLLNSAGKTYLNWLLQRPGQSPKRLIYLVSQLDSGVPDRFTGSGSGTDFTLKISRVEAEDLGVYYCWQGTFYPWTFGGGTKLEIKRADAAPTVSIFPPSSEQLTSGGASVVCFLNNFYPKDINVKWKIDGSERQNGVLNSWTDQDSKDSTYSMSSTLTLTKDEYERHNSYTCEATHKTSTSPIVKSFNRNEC
With B3 the “ICAM-1 MFI on HRMC, 250 ng/mL rhTWEAK, mAb 0.1 µg/mL” value [7] was 5830 MFI, the binding result [8] was “no binding (tested: 20 µg/mL)” and the binding result [9] was “binds”.

B4: KO42d mouse monoclonal antibody (hybridoma-derived) (antibody, V domains shown)
VH: EVQLLQSGPELVKPVASVKMSCKASGYTFTDYNIHWVKQSHGKSLEWIGYINPNNGVTGYNQKFRGKATLTVNRSSNTAYMDLRSLTSEDSAVYYCTRRYGDYVHAMDCWGQGTSVTVSS
VL: DIQMTQSPSSLSASLGERVSLTCRASQDIGSRLNWLQQEPDGTIKRLIYATSSLDSGVPKRFSGSRSGSDYSLTISSLESEDFVDYYCLQYASSPYTFGGGTKLEIK
notes: as for B1
B4: binds [10]; binds [1]; binds [2].
